Assay results as given in patent US20230265151A1, “GIP/GLP1 CO-AGONIST COMPOUNDS” (priority 2020, published 2023).

Assays:
Assay in all cases: cell-based or functional assay
[1] = molecular target: T1, human glucose-dependent insulinotropic polypeptide (GIP) receptor (human, UniProt P48546 22-466)
T1 sequence (looked up): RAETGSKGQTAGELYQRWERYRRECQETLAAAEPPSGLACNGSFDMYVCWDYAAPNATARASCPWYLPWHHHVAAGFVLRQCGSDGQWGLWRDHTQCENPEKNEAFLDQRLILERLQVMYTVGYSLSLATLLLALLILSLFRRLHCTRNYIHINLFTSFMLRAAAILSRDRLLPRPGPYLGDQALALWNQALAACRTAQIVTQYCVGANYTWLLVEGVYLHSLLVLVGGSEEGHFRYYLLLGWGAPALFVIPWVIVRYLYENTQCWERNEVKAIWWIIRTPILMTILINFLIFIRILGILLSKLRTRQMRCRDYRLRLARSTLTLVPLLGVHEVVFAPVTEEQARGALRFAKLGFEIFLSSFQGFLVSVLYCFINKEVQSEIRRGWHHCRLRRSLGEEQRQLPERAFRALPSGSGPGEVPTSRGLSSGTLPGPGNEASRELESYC

[2] = molecular target: human glucagon-like peptide-1 (GLP-1) receptor (human, UniProt P43220 24-463)
human glucagon receptor = human glucagon receptor (human, UniProt P47871 26-477)

B1: Example 260 (peptide)
peptide: YXEGTXTSDXSIXLDXKAQXEFIXXLIKGGPSSGAPPPS
modifications: Aib2, αMeF(2F)6, OMeY10, αMeL13, Orn16, K17(Z), Aib20, D-Glu24, αMeY25, K28(Z), C-terminal NH2; Z = AEEA2-(γ-Glu)-CO-(CH2)12-CO2H
cAMP EC50 [1]: 0.0239 nM | cAMP EC50 [2]: 0.547 nM | cAMP EC50 (human glucagon receptor): > 9950 nM

B2: Example 282 (peptide)
peptide: YXEGTXTSDXSIXLDXKAQXEFIXXLIKGGPSSGAPPPS
modifications: Aib2, αMeF(2F)6, 2Nal10, αMeL13, Orn16, K17(Z), Aib20, D-Glu24, αMeY25, K28(Z), C-terminal NH2; Z = AEEA2-(γ-Glu)-(10-(4-carboxyphenoxy)decanoyl)
cAMP EC50 [1]: 0.0193 nM | cAMP EC50 [2]: 0.216 nM | cAMP EC50 (human glucagon receptor): > 9950 nM

B3: Example 271 (peptide)
peptide: YXEGTXTSDXSIXLDXKAQXKFIXXLIEGGPSSGAPPPS
modifications: Aib2, αMeF(2F)6, Nle10, αMeL13, Orn16, K17(Z), Aib20, K21(Z), D-Glu24, αMeY25, C-terminal NH2; Z = AEEA2-CO-(CH2)12-CO2H
cAMP EC50 [1]: 0.0186 nM | cAMP EC50 [2]: 0.494 nM | cAMP EC50 (human glucagon receptor): > 9950 nM

B4: Example 286 (peptide)
peptide: YXEGTXTSDXSIXLDXIAQXEFIKXLIKGGPSSGAPPPS
modifications: Aib2, αMeF(2F)6, 4Pal10, αMeL13, Orn16, Aib20, K24(Z), αMeY25, K28(Z), C-terminal NH2; Z = AEEA2-(γ-Glu)-(11-(4-carboxyphenoxy)undecanoyl)
cAMP EC50 [1]: 0.0344 nM | cAMP EC50 [2]: 0.678 nM | cAMP EC50 (human glucagon receptor): > 9950 nM

B5: Example 272 (peptide)
peptide: YXEGTXTSDXSIXLDXKAQXKFIXXLIEGGPSSGAPPPS
modifications: Aib2, αMeF(2F)6, hTyr10, αMeL13, Orn16, K17(Z), Aib20, K21(Z), D-Glu24, αMeY25, C-terminal NH2; Z = AEEA2-CO-(CH2)12-CO2H
cAMP EC50 [1]: 0.0264 nM | cAMP EC50 [2]: 0.388 nM | cAMP EC50 (human glucagon receptor): > 9950 nM

B6: Example 283 (peptide)
peptide: YXEGTXTSDXSIXLDXIAQXEFIKXLIKGGPSSGAPPPS
modifications: Aib2, αMeF(2F)6, 2Nal10, αMeL13, Orn16, Aib20, K24(Z), αMeY25, K28(Z), C-terminal NH2; Z = AEEA2-(γ-Glu)-(10-(4-carboxyphenoxy)decanoyl)
cAMP EC50 [1]: 0.073 nM | cAMP EC50 [2]: 1.14 nM | cAMP EC50 (human glucagon receptor): > 9950 nM

B7: Example 156 (peptide)
peptide: YXEGTXTSDXSIXLDXKAQXEFIXXLIEGGKSSGAPPPS
modifications: Aib2, αMeF(2F)6, 4Pal10, αMeL13, Orn16, K17(Z), 4Pal20, D-Glu24, αMeY25, K31(Z), C-terminal NH2; Z = AEEA2-(γ-Glu)-CO-(CH2)12-CO2H
cAMP EC50 [1]: 0.0422 nM | cAMP EC50 [2]: 4.6 nM | cAMP EC50 (human glucagon receptor): > 9950 nM

B8: Example 281 (peptide)
peptide: YXEGTXTSDXSIXLDXKAQXKFIXXLIEGGPSSGAPPPS
modifications: Aib2, αMeF(2F)6, 2Nal10, αMeL13, Orn16, K17(Z), Aib20, K21(Z), D-Glu24, αMeY25, C-terminal NH2; Z = AEEA2-(γ-Glu)-(10-(4-carboxyphenoxy)decanoyl)
cAMP EC50 [1]: 0.0187 nM | cAMP EC50 [2]: 0.252 nM | cAMP EC50 (human glucagon receptor): > 9950 nM

B9: Example 290 (peptide)
peptide: YXEGTXTSDXSIXLDXKAQXEFIXXLIKGGPSSGAPPPS
modifications: Aib2, αMeF(2F)6, OMeY10, αMeL13, Orn16, K17(Z), Aib20, D-Glu24, αMeY25, K28(Z), C-terminal NH2; Z = AEEA2-(γ-Glu)-CO-(CH2)10-CH3
cAMP EC50 [1]: 0.0188 nM | cAMP EC50 [2]: 0.324 nM | cAMP EC50 (human glucagon receptor): > 9950 nM

B10: Example 279 (peptide)
peptide: YXEGTXTSDXSIXLDXIAQXEFIKXLIKGGPSSGAPPPS
modifications: Aib2, αMeF(2F)6, OMeY10, αMeL13, Orn16, Aib20, K24(Z), αMeY25, K28(Z), C-terminal NH2; Z = AEEA2-(γ-Glu)-(10-(4-carboxyphenoxy)decanoyl)
cAMP EC50 [1]: 0.0305 nM | cAMP EC50 [2]: 0.406 nM | cAMP EC50 (human glucagon receptor): > 9950 nM

B11: Example 284 (peptide)
peptide: YXEGTXTSDXSIXLDXIAQXKFIXXLIKGGPSSGAPPPS
modifications: Aib2, αMeF(2F)6, 2Nal10, αMeL13, Orn16, Aib20, K21(Z), D-Glu24, αMeY25, K28(Z), C-terminal NH2; Z = AEEA2-(γ-Glu)-(10-(4-carboxyphenoxy)decanoyl)
cAMP EC50 [1]: 0.0389 nM | cAMP EC50 [2]: 0.505 nM | cAMP EC50 (human glucagon receptor): > 9950 nM

B12: Example 262 (peptide)
peptide: YXEGTXTSDXSIXLDXIAQXEFIKXLIKGGPSSGAPPPS
modifications: Aib2, αMeF(2F)6, OMeY10, αMeL13, Orn16, Aib20, K24(Z), αMeY25, K28(Z), C-terminal NH2; Z = AEEA2-(γ-Glu)-CO-(CH2)12-CO2H
cAMP EC50 [1]: 0.0327 nM | cAMP EC50 [2]: 0.472 nM | cAMP EC50 (human glucagon receptor): > 9950 nM

B13: Example 265 (peptide)
peptide: YXEGTXTSDXSIXLDXKAQXKFIXXLIEGGPSSGAPPPS
modifications: Aib2, αMeF(2F)6, OMeY10, αMeL13, Orn16, K17(Z), Aib20, K21(Z), D-Glu24, αMeY25, C-terminal NH2; Z = AEEA2-CO-(CH2)12-CO2H
cAMP EC50 [1]: 0.0145 nM | cAMP EC50 [2]: 0.262 nM | cAMP EC50 (human glucagon receptor): > 9950 nM

B14: Example 157 (peptide)
peptide: YXEGTXTSDXSIXLDXKAQXXFIXXLIEGGKSSGAPPPS
modifications: Aib2, αMeF(2F)6, 4Pal10, αMeL13, Orn16, K17(Z), Aib20, 4Pal21, D-Glu24, αMeY25, K31(Z), C-terminal NH2; Z = AEEA2-(γ-Glu)-CO-(CH2)12-CO2H
cAMP EC50 [1]: 0.0286 nM | cAMP Emax [1]: 98.8% | cAMP EC50 [2]: 0.94 nM | cAMP EC50 (human glucagon receptor): > 9950 nM

B15: Example 275 (peptide)
peptide: YXEGTXTSDXSIXLDXIAQXKFIXXLIKGGPSSGAPPPS
modifications: Aib2, αMeF(2F)6, 4Pal10, αMeL13, Orn16, Aib20, K21(Z), D-Glu24, αMeY25, K28(Z), C-terminal NH2; Z = AEEA2-(γ-Glu)-(10-(4-carboxyphenoxy)decanoyl)
cAMP EC50 [1]: 0.0152 nM | cAMP EC50 [2]: 0.737 nM | cAMP EC50 (human glucagon receptor): > 9950 nM

B16: Example 270 (peptide)
peptide: YXEGTXTSDXSIXLDXIAQXEFIKXLIKGGPSSGAPPPS
modifications: Aib2, αMeF(2F)6, hTyr10, αMeL13, Orn16, Aib20, K24(Z), αMeY25, K28(Z), C-terminal NH2; Z = AEEA2-(γ-Glu)-CO-(CH2)12-CO2H
cAMP EC50 [1]: 0.0567 nM | cAMP EC50 [2]: 0.551 nM | cAMP EC50 (human glucagon receptor): > 9950 nM
